Test results taken from patent US5217867.

Assays:
[1] = molecular target: G-gal-G (hGR with DNA binding domain replaced by GAL4 1-74) (Homo sapiens / Saccharomyces cerevisiae) (UniProt P04150+P04386); test: cell_activity
[2] = system: rTRalpha-Bm+ (rat thyroid hormone receptor alpha) BamHI linker at amino acid 21 (Rattus norvegicus), P63059-2; test: cell_activity; conditions: TRE-CAT, T3; which TRE (rGH or palindromic) not stated
[3] = molecular target: GAL4 (Saccharomyces cerevisiae) (UniProt P04386); test: cell_activity; conditions: CAT reporter
[4] = system: hGR G421 421 to Gly (Homo sapiens); test: pulldown; conditions: relative to hGR-SB
[5] = system: hGR G423 423 to Gly (Homo sapiens); test: pulldown; conditions: relative to hGR-SB
[6] = system: hGR G424 424 to Gly (Homo sapiens); test: pulldown; conditions: relative to hGR-SB
[7] = system: hGR G426 D426G (Homo sapiens); test: pulldown; conditions: relative to hGR-SB
[8] = system: hGR G431 C431G (Homo sapiens); test: pulldown; conditions: relative to hGR-SB
[9] = system: hGR G432 432 to Gly (Homo sapiens); test: pulldown; conditions: relative to hGR-SB
[10] = system: hGR G433 433 to Gly (Homo sapiens); test: pulldown; conditions: relative to hGR-SB
[11] = system: hGR G437 437 to Gly (Homo sapiens); test: pulldown; conditions: relative to hGR-SB
[12] = system: hGR G438 438 to Gly (Homo sapiens); test: pulldown; conditions: relative to hGR-SB
[13] = system: hGR G441 441 to Gly (Homo sapiens); test: pulldown; conditions: relative to hGR-SB
[14] = system: hGR G442 K442G (Homo sapiens); test: pulldown; conditions: relative to hGR-SB; binds but transcriptionally inactive
[15] = system: hGR G444 444 to Gly (Homo sapiens); test: pulldown; conditions: relative to hGR-SB
[16] = system: hGR G445 445 to Gly (Homo sapiens); test: pulldown; conditions: relative to hGR-SB
[17] = system: hGR G446 446 to Gly (Homo sapiens); test: pulldown; conditions: relative to hGR-SB; may be unstable in vitro
[18] = system: hGR G447 447 to Gly (Homo sapiens); test: pulldown; conditions: relative to hGR-SB
[19] = system: hGR G450 450 to Gly (Homo sapiens); test: pulldown; conditions: relative to hGR-SB
[20] = system: hGR G453 453 to Gly (Homo sapiens); test: pulldown; conditions: relative to hGR-SB
[21] = system: hGR G455 455 to Gly (Homo sapiens); test: pulldown; conditions: relative to hGR-SB; may be unstable in vitro
[22] = system: hGR G457 457 to Gly (Homo sapiens); test: pulldown; conditions: relative to hGR-SB
[23] = system: hGR G460 460 to Gly (Homo sapiens); test: pulldown; conditions: relative to hGR-SB
[24] = system: hGR G462 462 to Gly (Homo sapiens); test: pulldown; conditions: relative to hGR-SB
[25] = system: hGR G463 463 to Gly (Homo sapiens); test: pulldown; conditions: relative to hGR-SB
[26] = system: hGR G465 465 to Gly (Homo sapiens); test: pulldown; conditions: relative to hGR-SB
[27] = system: hGR G467 467 to Gly (Homo sapiens); test: pulldown; conditions: relative to hGR-SB; may be unstable in vitro
[28] = system: hGR G470 470 to Gly (Homo sapiens); test: pulldown; conditions: relative to hGR-SB
[29] = system: hGR G471 471 to Gly (Homo sapiens); test: pulldown; conditions: relative to hGR-SB
[30] = system: hGR G473 473 to Gly (Homo sapiens); test: pulldown; conditions: relative to hGR-SB
[31] = system: hGR G474 474 to Gly (Homo sapiens); test: pulldown; conditions: relative to hGR-SB
[32] = system: hGR G476 476 to Gly (Homo sapiens); test: pulldown; conditions: relative to hGR-SB
[33] = system: hGR G477 477 to Gly (Homo sapiens); test: pulldown; conditions: relative to hGR-SB
[34] = system: hGR G479 479 to Gly (Homo sapiens); test: pulldown; conditions: relative to hGR-SB
[35] = system: hGR G480 480 to Gly (Homo sapiens); test: pulldown; conditions: relative to hGR-SB
[36] = system: hGR G481 481 to Gly (Homo sapiens); test: pulldown; conditions: relative to hGR-SB
[37] = system: hGR G486 486 to Gly (Homo sapiens); test: pulldown; conditions: relative to hGR-SB; may be unstable in vitro (10% activity in cells)
[38] = system: hGR delta420-451 deletion between residues 420 and 451 (printed positions are the non-deleted junction residues) (Homo sapiens); test: pulldown; conditions: relative to hGR-SB
[39] = system: hGR delta450-487 deletion between residues 450 and 487 (printed positions are the non-deleted junction residues) (Homo sapiens); test: pulldown; conditions: relative to hGR-SB
[40] = system: hGR-SB (human glucocorticoid receptor, wild-type equivalent) (Homo sapiens); test: pulldown; conditions: immunoprecipitation DNA binding, reference

G-gal-G (hGR with DNA binding domain replaced by GAL4 1-74) (Homo sapiens / Saccharomyces cerevisiae), sequence (P04150 other isoform, or with tags, fused parts or gaps, chain 1 of 2): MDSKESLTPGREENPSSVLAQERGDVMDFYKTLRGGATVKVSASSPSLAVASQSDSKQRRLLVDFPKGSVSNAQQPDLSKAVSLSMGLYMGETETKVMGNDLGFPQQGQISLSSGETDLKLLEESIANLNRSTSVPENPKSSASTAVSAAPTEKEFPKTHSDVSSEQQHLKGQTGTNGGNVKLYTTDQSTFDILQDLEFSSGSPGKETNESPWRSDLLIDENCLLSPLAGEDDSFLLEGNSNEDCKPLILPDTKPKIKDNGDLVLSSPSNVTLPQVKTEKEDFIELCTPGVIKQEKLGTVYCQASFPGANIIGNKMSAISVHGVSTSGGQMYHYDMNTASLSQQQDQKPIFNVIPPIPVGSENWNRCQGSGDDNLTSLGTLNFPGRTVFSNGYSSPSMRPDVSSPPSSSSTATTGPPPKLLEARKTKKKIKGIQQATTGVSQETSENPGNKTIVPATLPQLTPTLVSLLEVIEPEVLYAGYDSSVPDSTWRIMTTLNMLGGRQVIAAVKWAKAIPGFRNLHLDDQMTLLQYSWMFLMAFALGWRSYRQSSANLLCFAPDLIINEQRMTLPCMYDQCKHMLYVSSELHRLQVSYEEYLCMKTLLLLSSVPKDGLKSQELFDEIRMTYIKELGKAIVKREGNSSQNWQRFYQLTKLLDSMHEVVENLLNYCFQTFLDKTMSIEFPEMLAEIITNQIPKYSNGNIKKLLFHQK
G-gal-G (hGR with DNA binding domain replaced by GAL4 1-74) (Homo sapiens / Saccharomyces cerevisiae), sequence (P04386 1-74, chain 2 of 2): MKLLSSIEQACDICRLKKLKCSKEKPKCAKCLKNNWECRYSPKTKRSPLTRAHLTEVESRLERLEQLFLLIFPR
GAL4 (Saccharomyces cerevisiae), sequence (P04386 whole entry, the tested form may be a part): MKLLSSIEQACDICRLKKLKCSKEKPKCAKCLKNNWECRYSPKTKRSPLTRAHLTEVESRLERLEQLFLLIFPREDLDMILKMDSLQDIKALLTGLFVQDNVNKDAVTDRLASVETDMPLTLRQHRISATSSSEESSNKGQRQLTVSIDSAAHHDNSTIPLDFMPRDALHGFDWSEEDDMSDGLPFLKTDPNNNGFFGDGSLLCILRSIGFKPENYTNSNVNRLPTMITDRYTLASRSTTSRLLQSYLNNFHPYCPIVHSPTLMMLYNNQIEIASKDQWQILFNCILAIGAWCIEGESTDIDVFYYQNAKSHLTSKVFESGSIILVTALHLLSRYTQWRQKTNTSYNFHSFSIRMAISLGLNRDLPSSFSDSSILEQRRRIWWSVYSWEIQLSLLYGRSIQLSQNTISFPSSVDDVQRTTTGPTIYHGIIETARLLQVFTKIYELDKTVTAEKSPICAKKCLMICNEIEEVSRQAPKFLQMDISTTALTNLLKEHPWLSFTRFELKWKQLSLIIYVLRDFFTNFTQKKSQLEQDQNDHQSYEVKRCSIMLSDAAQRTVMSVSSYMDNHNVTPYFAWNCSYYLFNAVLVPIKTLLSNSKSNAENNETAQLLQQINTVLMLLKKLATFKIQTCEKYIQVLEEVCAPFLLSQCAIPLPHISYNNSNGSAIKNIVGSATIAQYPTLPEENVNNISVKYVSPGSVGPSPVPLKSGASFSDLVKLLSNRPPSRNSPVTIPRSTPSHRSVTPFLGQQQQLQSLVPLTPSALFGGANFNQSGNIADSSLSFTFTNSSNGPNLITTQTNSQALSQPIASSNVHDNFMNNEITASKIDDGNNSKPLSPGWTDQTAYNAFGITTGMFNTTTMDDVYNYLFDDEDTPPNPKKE
rTRalpha-Bm+ (rat thyroid hormone receptor alpha) BamHI linker at amino acid 21 (Rattus norvegicus), P63059-2, sequence (P63059 whole entry, looked up, the tested form may be a part): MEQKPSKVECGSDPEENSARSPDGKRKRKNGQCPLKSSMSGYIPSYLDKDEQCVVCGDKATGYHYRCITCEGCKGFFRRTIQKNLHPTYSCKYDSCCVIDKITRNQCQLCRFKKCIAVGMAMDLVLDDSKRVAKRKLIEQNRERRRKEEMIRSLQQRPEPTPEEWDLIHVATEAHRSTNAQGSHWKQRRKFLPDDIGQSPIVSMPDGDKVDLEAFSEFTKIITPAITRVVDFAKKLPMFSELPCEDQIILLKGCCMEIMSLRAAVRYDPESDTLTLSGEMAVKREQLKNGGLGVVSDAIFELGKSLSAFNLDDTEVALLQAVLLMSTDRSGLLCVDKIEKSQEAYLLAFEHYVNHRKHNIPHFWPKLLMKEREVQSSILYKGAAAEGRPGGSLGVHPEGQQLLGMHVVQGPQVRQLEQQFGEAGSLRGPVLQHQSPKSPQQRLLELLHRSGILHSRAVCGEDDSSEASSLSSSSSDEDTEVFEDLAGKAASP

Work on “deltaMTV-CAT promoter (no GAL4 site, GREs deleted)” yielded an activity ([1]; relative to deltaMTV-GAL-CAT, possible cryptic site) of 5%.

For “TCAGGTCATGACCTGA (double strand) [TRE of TRE-CAT reporter (palindromic TRE)]”, the activity [2] was 100%.

In the case of “deltaMTV-GAL-CAT promoter with synthetic GAL4 site 17MX”, the activity ([1]; with hormone) is reported as 500 fold and the activity [3] is reported as 20 fold.

GRE-containing DNA fragment was tested, and the binding signal [4] was < 1%, the binding signal [5] was < 1% and the binding signal [6] was 1%. For the same substance, the binding signal [7] was 75%, the binding signal [8] was 10% and the binding signal [9] was 30%. For the same substance, the binding signal [10] was 1%, the binding signal [11] was 8% and the binding signal [12] was < 1%. For the same substance, the binding signal [13] was < 1%, the binding signal [14] was 60% and the binding signal [15] was 1%. For the same substance, the binding signal [16] was < 1%, the binding signal [17] was 6% and the binding signal [18] was 2%. For the same substance, the binding signal [19] was 50%, the binding signal [20] was 60% and the binding signal [21] was 6%. The binding signal [22] was 2%, the binding signal [23] was 90% and the binding signal [24] was 40%. For the same substance, the binding signal [25] was 1%, the binding signal [26] was 1% and the binding signal [27] was 6%. For the same substance, the binding signal [28] was 4%, the binding signal [29] was 6% and the binding signal [30] was < 1%. The binding signal [31] was 95%, the binding signal [32] was < 1% and the binding signal [33] was 1%. For the same substance, the binding signal [34] was 40%, the binding signal [35] was 50% and the binding signal [36] was 3%. For the same substance, the binding signal [37] was 1%, the binding signal [38] was 1% and the binding signal [39] was 1%. It also gave a binding signal [40] of 100%.
